# According to CN114591432A (NANJING FUJIEKANG BIOTECHNOLOGY CO LTD, dated 2022):
# Molecular target: T1, 人源TNFα重组胞外结构域蛋白 (human, UniProt P01375 57-233)
# T1 construct: range 57-233; No purification tag is described; also called 人源重组TNFα蛋白; TNFα蛋白
# Test: ELISA of crude VHH extract on coated TNFα, anti-HA-HRP; positive if OD above 5 times the control well
# T1 sequence (P01375 57-233 limits assumed): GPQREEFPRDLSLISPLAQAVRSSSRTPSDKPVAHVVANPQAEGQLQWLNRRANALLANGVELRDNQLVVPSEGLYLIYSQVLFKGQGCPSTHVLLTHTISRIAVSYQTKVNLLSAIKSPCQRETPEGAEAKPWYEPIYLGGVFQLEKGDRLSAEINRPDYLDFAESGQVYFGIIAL
row,Binder,binding result
1,"单域抗体2B1 (VHH, Crude extract from E. coli TG1 clones (pMECS), detected through an HA tag) VHH: ESGGGSVQSGGSLRLSCQASGYTSSSYCMGWFRQVPGKEREGVASIDSGGFTHTANSVKGRFTISQDNAKNTLYLQMNSLKPEDTAMYYCAATPREFGWCSLSGHFNYWGQGTQVTVSS",binds
2,"单域抗体1E9 (VHH, Crude extract from E. coli TG1 clones (pMECS), detected through an HA tag) VHH: ESGGGSVQSGGSLRLSCTVFGATFNGHAMAWFRQAPGKDREGVSCISMSGRSTAYADSVKGRFTISRDNAKNTLYLQMNGLKPEDTAMYYCAAAAFGYCSGPWSSSHGEYMYWGQGTQVTVSS",binds
3,"单域抗体1H10 (VHH, Crude extract from E. coli TG1 clones (pMECS), detected through an HA tag) VHH: ESGGGLVQAGGSLRLSCTVFGATFNGHAMAWFRQAPGKDREGVSCISMSGRSTAYADSVKGRFTISRDNAKNTLYLQMNGLKPEDTAMYYCAAAAFGYCSGPWSSSHGEYMYWGQGTQVTVSS",binds

# Further lines, results first:
row,binding result,Binder
1,binds,"单域抗体2B8 (VHH, Crude extract from E. coli TG1 clones (pMECS), detected through an HA tag) VHH: ESGGGSVQAGGSLRLSCAASGYTFSTYCMAWFRQAPGEEREGVAYIDTDGSTGHADSVRGRFTVSRDNAKNTLYLQMNSLKPEDTAIYYCAARWTRLCGWWSYPTGSWGQGTQVTVSS"
2,binds,"单域抗体4A5 (VHH, Crude extract from E. coli TG1 clones (pMECS), detected through an HA tag) VHH: ESGGGLVQPGGSLRLSCTVSGLTFNDYALAWFRQAPGKDREGVSCISWSGGSTAYADSVKGRFTISRDNAKNTVYLQMNSLKPEDTAMYYCAAPAFRYCSGPWSSSHGEYIYWGQGTQVTVSS"
